Data set [1] deals with the molecule itself. The data set is described as follows: SEC; recombinant Ta0893 (co-expressed with GroEL/ES) mixed with Biorad gel filtration standard, Superdex S200 10/300 GL, 50 mM sodium phosphate pH 6.5, 500 mM NaCl; fractions assayed for MBD activity; apparent molecular weight from the activity profile. On the technique in general: SEC sorts molecules by how far they enter the pores of the column.

Data set [2] deals with the molecule itself. The data set is described as follows: SEC; T. acidophilum cell-free lysate mixed with Biorad gel filtration standard, Superdex S200 10/300 GL, 50 mM sodium phosphate pH 6.5, 500 mM NaCl; fractions assayed for MBD activity; apparent molecular weight from the activity profile.

Broadly, the stoichiometry N is the number of molecules, sites or subunits per partner or assembly.

B1: mevalonate 3,5-bisphosphate decarboxylase (Ta0893) from Thermoplasma acidophilum, recombinant, full length, co-expressed with GroEL/GroES (enzyme, UniProt Q9HJS1 1-405, looked up)
chain: MDTAGMEHSVSWISSNSDELILRSWISSRMDIAELHRAGDDIKEMMKSEGYYSEPSKYEAELSDGNITFAYSYPIKAFEKFLGYYDRENRIAFNPSISMRTDFSFCLAACRYRKNGKTDTVVLDGYADNKYYKKAKFALDKFRSEYSINGSFDFYIKRYRRYQKAKGLSESSAVAAAVSRALISNVFGDDAAKDDIFVSRYARLVSGSGTRAAHDGISMWLSYPGMDSRDCVAFKVGKSNENLNYGVFPKYSDVATDNAHSIAVNSVFYGTWVSEKFSNVKRLISDHFDINDLLKIGENDMLRLNSILMSGGLIIQTPDSLRILKEILKFKSKNEGFYFTADTGPSIAIFSFDRSLIDEFRENVNDEYIEGSYDFKGYNNRMRDFIREAQEYFTQTPGEDEEDRL
notes: Ta0893, mevalonate 3,5-bisphosphate decarboxylase, Thermoplasma acidophilum; NCBI WP_010901303.1; full-length protein; predicted monomer 46.3 kDa; gene codon optimized and synthesized, cloned in pET28a(+) between NdeI and XhoI; The Ni-NTA eluate may still hold E. coli proteins such as the co-expressed chaperones; also called MBD; recombinant Ta0893; source: E. coli BL21(DE3) Gold, co-expressed …
In the case of B1, the “stoichiometry N” value in data set [1] worked out at 2.

B2: mevalonate 3,5-bisphosphate decarboxylase (Ta0893), native, in Thermoplasma acidophilum lysate (enzyme, UniProt Q9HJS1 1-405, looked up)
chain: B1 chain
notes: Ta0893, mevalonate 3,5-bisphosphate decarboxylase, Thermoplasma acidophilum; NCBI WP_010901303.1; predicted monomer 46.3 kDa; followed as MBD activity in the lysate; also called MBD; native MBD; source: endogenous, T. acidophilum cell-free lysate
Consider B2, for which, in data set [2], the “stoichiometry N” value worked out at 2.
